Data as given in article doi:10.1101/2020.02.12.945204 (bioRxiv, 2020).

B2: H6 flagella (polymeric flagellin) from E. coli O127:H6 (natural protein)
chain: MAQVINTNSLSLITQNNINKNQSALSSSIERLSSGLRINSAKDDAAGQAIANRFTSNIKGLTQAARNANDGISVAQTTEGALSEINNNLQRIRELTVQASTGTNSDSDLDSIQDEIKSRLDEIDRVSGQTQFNGVNVLAKDGSMKIQVGANDGQTITIDLKKIDSDTLGLNGFNVNGKGETANTAATLKDMSGFTAAAAPGGTVGVTQYTDKSAVASSVDILNAVAGADGNKVTTSADVGFGTPAAAVTYTYNKDTNSYSAASDDISSANLAAFLNPQARDTTKATVTIGGKDQDVNIDKSGNLTAADDGAVLYMDATGNLTKNNAGGDTQATLAKVATATGAKAATIQTDKGTFTSDGTAFDGASMSIDANTFANAVKNDTYTATVGAKTYSVTTGSAAADTAYMSNGVLSDTPPTYYAQADGSITTTEDAAAGKLVYKGSDGKLTTDTTSKAESTSDPLAALDDAISQIDKFRSSLGAVQNRLDSAVTNLNNTTTNLSEAQSRIQDADYATEVSNMSKAQIIQQAGNSVLAKANQVPQQVLSLLQG
B3: H48 flagella (polymeric flagellin) from commensal E. coli K12:O175:H48 (natural protein)
chain: MAQVINTNSLSLITQNNINKNQSALSSSIERLSSGLRINSAKDDAAGQAIANRFTSNIKGLTQAARNANDGISVAQTTEGALSEINNNLQRVRELTVQATTGTNSESDLSSIQDEIKSRLDEIDRVSGQTQFNGVNVLAKNGSMKIQVGANDNQTITIDLKQIDAKTLGLDGFSVKNNDTVTTSAPVTAFGATTTNNIKLTGITLSTEAATDTGGTNPASIEGVYTDNGNDYYAKITGGDNDGKYYAVTVANDGTVTMATGATANATVTDANTTKATTITSGGTPVQIDNTAGSATANLGAVSLVKLQDSKGNDTDTYALKDTNGNLYAADVNETTGAVSVKTITYTDSSGAASSPTAVKLGGDDGKTEVVDIDGKTYDSADLNGGNLQTGLTAGGEALTAVANGKTTDPLKALDDAIASVDKFRSSLGAVQNRLDSAVTNLNNTTTNLSEAQSRIQDADYATEVSNMSKAQIIQQAGNSVLAKANQVPQQVLSLLQG

What was measured:
[1] = target: B2; assay: ELISA
[2] = target: B3; assay: ELISA
[3] = target: the molecule itself; assay: SEC

B1: recombinant human galectin-4 (natural protein)
chain: MAYVPAPGYQPTYNPTLPYYQPIPGGLNVGMSVYIQGVASEHMKRFFVNFVVGQDPGSDVAFHFNPRFDGWDKVVFNTLQGGKWGSEERKRSMPFKKGAAFELVFIVLAEHYKVVVNGNPFYEYGHRLPLQMVTHLQVDGDLQLQSINFIGGQPLRPQGPPMMPPYPGPGHCHQQLNSLPTMEGPPTFNPPVPYFGRLQGGLTARRTIIIKGYVPPTGKSFAINFKVGSSGDIALHINPRMGNGTVVRNSLLNGSWGSEEKKITHNPFGPGQFFDLSIRCGLDRFKVYANGQHLFDFAHRLSAFQRVDTLEIQGDVTLSYVQI
[1]
  binding result: binds
[2]
  binding result: binds

## B2
[3]
  binding result: binds

## B3
[3]
  binding result: binds
